Molecular target: human CD28 (human, UniProt P10747 19-152)
Test: -; scFv VHVL

Kd: 230 nM
B1: 1A7_H1.14_L1 (antibody, V domains shown)
VH: EVQLLESGGGLVQPGGSLRLSCAASGFTFSSYYMSWVRQAPGKGLEWVSTISESGDSTYYADSVKGRFTISRDNSKNTLYLQMNSLRAEDTAVYYCAKSGPGLRQVGFDYWGQGTLVTVSS
VL: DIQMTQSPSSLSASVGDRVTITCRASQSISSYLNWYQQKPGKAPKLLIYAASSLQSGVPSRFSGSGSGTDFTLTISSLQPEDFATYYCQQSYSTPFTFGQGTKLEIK

— patent publication US20250043001A1 (published 2025)
